This passage reports stoichiometry N results from PMC7064760.

In this assay the target is HA-tagged p26 (long-distance movement protein p26 of Pea enation mosaic virus 2) (Pea enation mosaic virus 2). Nature of the assay: SDS-PAGE and Western blot; lysates of agroinfiltrated N. benthamiana leaves (10x PBS, 2% beta-mercaptoethanol), 10% SDS-PAGE, blot with anti-HA antibody; co-infiltrated with p14, GFP-3'UTR(PEMV) and U1D.

In turn, “HA-tagged p26 (long-distance movement protein p26 of Pea enation mosaic virus 2) (natural protein)” came in with a stoichiometry N of 2.
